Experimental data published in paper PMC11289387, “Structure of the MlaC-MlaD complex reveals molecular basis of periplasmic phospholipid transport” (Nature Communications, 2024).

Target: the molecule itself
Experiment: cryo-EM structure; cardiolipin-loaded MlaD^32-183 with MlaC-apo, cross-linked with 0.1% glutaraldehyde, 0.8 mg/mL in 20 mM Tris pH 8.0, 150 mM NaCl; 1:6 map at 4.35 Å, 2:6 map at 4.38 Å

B1: periplasmic domain of E. coli MlaD (residues 32-183), MlaD^32-183 (domain or fragment, UniProt P64604 32-183, looked up)
chain: TSIRTEPTYTLYATFDNIGGLKARSPVSIGGVVVGRVADITLDPKTYLPRVTLEIEQRYNHIPDTSSLSIRTSGLLGEQYLALNVGFEDPELGTAILKDGDTIQDTKSAMVLEDLIGQFLYGSKGDDNKNSGDAPAAAPGNNETTEPVGTTK
notes: synthesised (Genscript), cloned in pET26b; No cleavage of the His tag is described; In the functional rows of the MlaC mutants the wild-type MlaD stood as part of MlaFEDB in acceptor proteoliposomes, not as this fragment; source: E. coli BL21(DE3), purified (Ni-NTA, Superdex 200); lipid removed with β-OG and loaded with cardiolipin where stated
- stoichiometry N: 6
